The record followed here is patent US20200181601A1 (INSTITUT PASTEUR, published 2020).

Test [1] concerns the target T1, PulD-N, soluble monomeric fragment corresponding to the N-terminal region of PulD from Klebsiella oxytoca (Klebsiella oxytoca, UniProt P15644 28-264).
T1 sequence: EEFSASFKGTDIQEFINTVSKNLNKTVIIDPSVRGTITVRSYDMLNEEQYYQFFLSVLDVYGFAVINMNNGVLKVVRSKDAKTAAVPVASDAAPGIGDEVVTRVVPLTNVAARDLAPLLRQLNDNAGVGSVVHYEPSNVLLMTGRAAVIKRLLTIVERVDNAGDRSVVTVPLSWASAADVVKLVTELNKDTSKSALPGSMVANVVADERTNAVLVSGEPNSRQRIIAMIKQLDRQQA

In test [2] the target is T2, full-length PulD, monomeric (Klebsiella oxytoca, UniProt P15644 28-660).
T2 sequence: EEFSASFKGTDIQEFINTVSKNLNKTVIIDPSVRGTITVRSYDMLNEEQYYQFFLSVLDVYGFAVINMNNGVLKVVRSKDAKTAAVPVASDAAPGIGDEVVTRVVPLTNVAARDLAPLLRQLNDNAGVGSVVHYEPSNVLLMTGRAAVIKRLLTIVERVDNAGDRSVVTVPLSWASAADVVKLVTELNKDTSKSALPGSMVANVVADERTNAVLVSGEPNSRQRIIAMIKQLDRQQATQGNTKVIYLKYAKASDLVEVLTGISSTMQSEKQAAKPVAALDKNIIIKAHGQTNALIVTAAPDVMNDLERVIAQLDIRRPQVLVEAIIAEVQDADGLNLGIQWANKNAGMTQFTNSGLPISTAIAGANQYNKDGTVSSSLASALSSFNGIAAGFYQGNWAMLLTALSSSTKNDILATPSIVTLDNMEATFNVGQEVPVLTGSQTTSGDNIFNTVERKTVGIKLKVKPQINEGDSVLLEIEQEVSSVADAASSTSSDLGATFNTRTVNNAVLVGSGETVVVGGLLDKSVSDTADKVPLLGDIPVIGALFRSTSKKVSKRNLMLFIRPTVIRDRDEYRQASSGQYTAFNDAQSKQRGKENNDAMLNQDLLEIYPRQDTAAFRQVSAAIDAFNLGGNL
In words: cell-based or functional assay.

The target in test [3] is T3, PulD-CS, PulD variant lacking the N-domain (Klebsiella oxytoca, UniProt P15644 28-660).
T3 construct: domain: PulD variant lacking the N-domain
In words: far-Western immunoblot. (In general: A western blot detects proteins with antibodies after separation by electrophoresis.)

Test [4] deals with T1, PulD-N, soluble monomeric fragment …. Kind of test: SPR, immobilized biotinylated PulD-N.

B1: Sac7*6-PhoA chimera (binder 6 fused to the N-terminus of E. coli alkaline phosphatase) (designed binder)
chain: RTPEMPVDGTGSVKVKFVLGGEEKEVDTSKIRHVYRYGKHVTFSYDDNGKLGLGLVKEKDAPKELLDMLARAEREKKLRAQPGVLENRAAQGDITAPGGARRLTGDQTAALRDSLSDKPAKNIILLIGDGMGDSEITAARNYAEGAGGFFKGIDALPLTGQYTHYALNKKTGKPDYVTDSAASATAWSTGVKTYNGALGVDIHEKDHPTILEMAKAAGLATGNVSTAELQGATPAALVAHVTSRKCYGPSATSEKCPGNALEKGGKGSITEQLLNARADVTLGGGAKTFAETATAGEWQGKTLREQAQARGYQLVSDAASLNSVTEANQQKPLLGLFADGNMPVRWLGPKATYHGNIDKPAVTCTPNPQRNDSVPTLAQMTDKAIELLSKNEKGFFLQVEGASIDKQGHAANPCGQIGETVDLDEAVQRALEFAKKEGNTLVIVTADHAHASQIVAPDTKAPGLTQALNTKDGAVMVMSYGNSEEDSQEHTGSQLRIAAYGPHAANVVGLTDQTDLFYTMKAALGLK
notes: also called clone 6-alkalin phosphatase fusion; Sac7*-PhoA
As for B1, in test [1], the ratio signal/background is above 10. In addition, the “inhibition of pullulanase secretion, strain PAP5198 pCHAP231, IPTG induced” value (from here on “inhibition of pullulanase secretion”) in test [2] is above 90%. Besides, in test [3], the binding result is reported as “no binding”.

B2: Sac7*33-PhoA chimera (binder 33 fused to the N-terminus of E. coli alkaline phosphatase) (designed binder)
chain: RTPEMPVDGTGSVKVKFTWYGEEKEVDTSKIMSVCRWGKRVAFSYDDNGKIDYGLVDEKDAPKELLDMLARAEREKKLRAQPGVLENRAAQGDITAPGGARRLTGDQTAALRDSLSDKPAKNIILLIGDGMGDSEITAARNYAEGAGGFFKGIDALPLTGQYTHYALNKKTGKPDYVTDSAASATAWSTGVKTYNGALGVDIHEKDHPTILEMAKAAGLATGNVSTAELQGATPAALVAHVTSRKCYGPSATSEKCPGNALEKGGKGSITEQLLNARADVTLGGGAKTFAETATAGEWQGKTLREQAQARGYQLVSDAASLNSVTEANQQKPLLGLFADGNMPVRWLGPKATYHGNIDKPAVTCTPNPQRNDSVPTLAQMTDKAIELLSKNEKGFFLQVEGASIDKQGHAANPCGQIGETVDLDEAVQRALEFAKKEGNTLVIVTADHAHASQIVAPDTKAPGLTQALNTKDGAVMVMSYGNSEEDSQEHTGSQLRIAAYGPHAANVVGLTDQTDLFYTMKAALGLK
On to B2, for which the ratio signal/background in test [1] was above 10. Moreover, the “inhibition of pullulanase secretion” value in test [2] is above 90%.

B3: Sac7*40-PhoA chimera (binder 40 fused to the N-terminus of E. coli alkaline phosphatase) (designed binder)
chain: RTPEMPVDGTGSVKVKFGEHGEEKEVDTSKIMSVVRFGKWVCFRYDDNGKAGYGAVLEKDAPKELLDMLARAEREKKLRAQPGVLENRAAQGDITAPGGARRLTGDQTAALRDSLSDKPAKNIILLIGDGMGDSEITAARNYAEGAGGFFKGIDALPLTGQYTHYALNKKTGKPDYVTDSAASATAWSTGVKTYNGALGVDIHEKDHPTILEMAKAAGLATGNVSTAELQGATPAALVAHVTSRKCYGPSATSEKCPGNALEKGGKGSITEQLLNARADVTLGGGAKTFAETATAGEWQGKTLREQAQARGYQLVSDAASLNSVTEANQQKPLLGLFADGNMPVRWLGPKATYHGNIDKPAVTCTPNPQRNDSVPTLAQMTDKAIELLSKNEKGFFLQVEGASIDKQGHAANPCGQIGETVDLDEAVQRALEFAKKEGNTLVIVTADHAHASQIVAPDTKAPGLTQALNTKDGAVMVMSYGNSEEDSQEHTGSQLRIAAYGPHAANVVGLTDQTDLFYTMKAALGLK
notes: also called Sac7*-PhoA
For B3, the ratio signal/background in test [1] was above 10. In addition, the “inhibition of pullulanase secretion” value in test [2] was above 90%. In addition, the binding result in test [3] is listed as “no binding”.

B4: wild type Sac7d (recombinant) (other)
chain: VKVKFKYKGEEKEVDTSKIKKVWRVGKMVSFTYDDNGKTGRGAVSEKDAPKELLDMLARAEREKK
notes: also called Sac7d wt; wt Sac7d
Turning to B4, the binding result in test [4] is reported as “no binding”.
